This note sets out measurements from PMC8604404, “Kinesin-binding protein remodels the kinesin motor to prevent microtubule binding” (Science Advances, 2021).

T1: Kinesin-binding protein (KIFBP), wild type (UniProt Q96EK5 1-621)
T1 construct: also called KIFBP-WT; WT-KIFBP; source: E. coli BL21-DE3, purified (glutathione-Sepharose, PreScission cleavage, Superdex 200)
T1 sequence (looked up): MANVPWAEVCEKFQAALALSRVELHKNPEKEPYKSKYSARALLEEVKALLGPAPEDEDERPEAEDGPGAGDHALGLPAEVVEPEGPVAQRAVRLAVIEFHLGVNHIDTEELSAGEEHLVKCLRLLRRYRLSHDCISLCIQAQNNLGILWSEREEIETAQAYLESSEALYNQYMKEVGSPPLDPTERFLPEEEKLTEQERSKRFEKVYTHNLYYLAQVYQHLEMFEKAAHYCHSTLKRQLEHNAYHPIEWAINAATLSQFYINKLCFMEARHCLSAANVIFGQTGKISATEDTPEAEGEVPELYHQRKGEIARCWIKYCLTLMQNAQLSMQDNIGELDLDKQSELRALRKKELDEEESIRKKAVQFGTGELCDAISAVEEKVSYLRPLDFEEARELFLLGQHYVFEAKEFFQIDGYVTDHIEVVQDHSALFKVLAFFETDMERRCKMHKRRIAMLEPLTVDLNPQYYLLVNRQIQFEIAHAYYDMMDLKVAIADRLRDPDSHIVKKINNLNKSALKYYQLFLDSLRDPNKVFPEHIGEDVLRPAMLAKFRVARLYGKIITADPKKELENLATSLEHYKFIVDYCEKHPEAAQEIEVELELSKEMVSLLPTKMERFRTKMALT

B1: His6-KIF15-N375 (KIF15 motor domain, amino acids 1 to 375) (domain or fragment, human, UniProt Q9NS87 1-375, looked up)
chain: MAPGCKTELRSVTNGQSNQPSNEGDAIKVFVRIRPPAERSGSADGEQNLCLSVLSSTSLRLHSNPEPKTFTFDHVADVDTTQESVFATVAKSIVESCMSGYNGTIFAYGQTGSGKTFTMMGPSESDNFSHNLRGVIPRSFEYLFSLIDREKEKAGAGKSFLCKCSFIEIYNEQIYDLLDSASAGLYLREHIKKGVFVVGAVEQVVTSAAEAYQVLSGGWRNRRVASTSMNRESSRSHAVFTITIESMEKSNEIVNIRTSLLNLVDLAGSERQKDTHAEGMRLKEAGNINRSLSCLGQVITALVDVGNGKQRHVCYRDSKLTFLLRDSLGGNAKTAIIANVHPGSRCFGETLSTLNFAQRAKLIKNKAVVNEDTQG
notes: No cleavage of the tag is described; also called KIF15 (1 to 375); source: E. coli BL21-DE3, purified (Ni-NTA, Superdex 200)
B2: His6-KIF18A-N363 (KIF18A motor domain, amino acids 1 to 363) (domain or fragment, human, UniProt Q8NI77 1-363, looked up)
chain: MSVTEEDLCHHMKVVVRVRPENTKEKAAGFHKVVHVVDKHILVFDPKQEEVSFFHGKKTTNQNVIKKQNKDLKFVFDAVFDETSTQSEVFEHTTKPILRSFLNGYNCTVLAYGATGAGKTHTMLGSADEPGVMYLTMLHLYKCMDEIKEEKICSTAVSYLEVYNEQIRDLLVNSGPLAVREDTQKGVVVHGLTLHQPKSSEEILHLLDNGNKNRTQHPTDMNATSSRSHAVFQIYLRQQDKTASINQNVRIAKMSLIDLAGSERASTSGAKGTRFVEGTNINRSLLALGNVINALADSKRKNQHIPYRNSKLTRLLKDSLGGNCQTIMIAAVSPSSVFYDDTYNTLKYANRAKDIKSSLKSNV
notes: No cleavage of the tag is described; also called KIF18A (1-363); source: E. coli BL21-DE3, purified (Ni-NTA, Superdex 200)
B3: KIFBP-L14^m (Loop-14 mutant of KIFBP) (natural protein, UniProt Q96EK5 1-621, looked up)
chain: T1 sequence (looked up) with D460A, L461A, N462A, P463A, Q464A, Y465A
notes: The methods tell the construction of mCherry-KIFBP-L14^m only, not of GST-KIFBP-L14^m; also called GST-KIFBP-L14^m; source: E. coli BL21-DE3, purified (glutathione-Sepharose, PreScission cleavage, Superdex 200)

What all share (conditions): both partners purified
The target of experiment [1] is T1, Kinesin-binding protein (KIFBP), wild …. The experiment in a line: SEC; kinesin motor domain mixed with equimolar KIFBP, Superose 6, 10 mM K-Hepes pH 7.7, 50 mM KCl, 1 mM DTT, 0.2 mM MgATP; fractions analysed by SDS-PAGE.
The target is the same in experiment [2]. The experiment in a line: pull-down; His6-kinesin motor domain immobilised on Ni-NTA agarose, 20 ug KIFBP protein or GST in 200 ul, 10 mM Hepes pH 7.4, 50 mM KCl, 10 mM imidazole, 30 min at 4°C; Coomassie gel, ratio of KIFBP to kinesin in the pellet.
In experiment [3] the target is B1. The description is as above.

Substitutions are numbered along the chain they refer to.

For B1, the binding result in experiment [1] is reported as “binds”.
For B2, the binding result in experiment [2] is on record as “binds”.
Take B3: the “fold reduction in binding against KIFBP-WT” value in experiment [3] was 2 fold.
